Our source for the stoichiometry N values is publication PMC4652760.

The target of test [1] is Streptomyces coelicolor RNase J (SCO5745) (Streptomyces coelicolor). Put plainly: AUC; analytical ultracentrifugation, data not shown; conditions not given.
For test [2] the target is unchanged. Put plainly: crystal structure; crystals from 27.5% w/v PEG 400, 0.1 M Tris-HCl pH 8.5, 18°C; co-purified RNA bound; space group P4(3)22, two protomers in the asymmetric unit; tetramer by crystallographic 2-fold symmetry.

“Streptomyces coelicolor RNase J (SCO5745) (enzyme)”: the stoichiometry N in test [1] and in test [2] was 4 throughout.

The term stoichiometry N denotes the number of molecules, sites or subunits per partner or assembly.
